Assay results from patent EP4818209A2 (Primatope Therapeutics Inc., dated 2026).

Biological target: T1, recombinant human CD40 (human, UniProt P25942 21-120, limits assumed)
T1 construct: biotinylated there; also called hCD40; purified CD40
Test: binding kinetics to human CD40

T1 sequence (P25942 21-120 limits assumed): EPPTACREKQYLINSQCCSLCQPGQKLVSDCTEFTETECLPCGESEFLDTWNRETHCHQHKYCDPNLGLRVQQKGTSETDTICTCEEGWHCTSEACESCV

fold difference of affinity against murine 2C10: ≤ 2 fold
B1: humanized 2C10 antibody, Clone 2.189.2 (2C10_h3 + 2C10_l2) (antibody, V domains shown)
VH: QVQLVQSGAEVKKPGASVKVSCKASGYTFTNYWMHWVRQAPGQRLEWIGYINPSNDYTKYNQKFKDRATLTADKSANTAYMELSSLRSEDTAVYYCARQGFPYWGQGTLVTVSS
VL: EIVLTQSPATLSLSPGERATLSCSASSSVSYMHWYQQKPGQAPRRWIYDTSKLASGVPARFSGSGSGTDYTLTISSLEPEDFAVYYCHQLSSDPFTFGGGTKVEIK
notes: also called h2C10; mAb 2.189.2
